The Human Domainome abundance scans (Beltran et al. 2025)
± gives the uncertainty stated by the source.

B1: CD2-associated protein, residues 271 to 331; numbered along this chain, Q9Y5K6 (parent)
chain: KEYCRTLFAYEGTNEDELTFKEGEIIHLISKETGEAGWWRGELNGKEGVFPDNFAVQINEL

Variants of: B1
Assay: abundance fitness (aPCA) (normalised: wild type 0, dead -1); higher = more abundant; growth selection in yeast, the domain comes from the species named
Details: Homo sapiens

Variant	abundance fitness
KEYCRTLFAYEGTNEDELTFKEGEIIHLISKETGEAGWWRGELNGKVGVFPDNFAVQINEL	-0.029 ± 0.055
KEYCRTLFAYEGTNEDELTFKEGEIIHLISKETGEAGWWRGELNGKYGVFPDNFAVQINEL	-0.171 ± 0.059
KEYCRTLFAYEGTNEDELTFKEGEIIHLISKETGEAGWWRGELNGKWGVFPDNFAVQINEL	-0.601 ± 0.15
KEYCRTLFAYEGTNEDELTFKEGEIIHLISKETGEAGWWRGELNGKTGVFPDNFAVQINEL	-0.029 ± 0.09
KEYCRTLFAYEGTNEDELTFKEGEIIHLISKETGEAGWWRGELNGKEGVKPDNFAVQINEL	-0.993 ± 0.17
KEYCRTLFAYEGTNEDELTFKEGEIIHLISKETGEAGWWRGELNGKEGVMPDNFAVQINEL	-0.845 ± 0.14
KEYCRTLFAYEGTNEDELTFKEGEIIHLISKETGEAGWWRGELNGKEGVLPDNFAVQINEL	-0.668 ± 0.07
KEYCRTLFAYEGTNEDELTFKEGEIIHLISKETGEAGWWRGELNGKEGVIPDNFAVQINEL	-0.822 ± 0.2
KEYCRTLFAYEGTNEDELTFKEGEIIHLISKETGEAGWWRGELNGKEGVVPDNFAVQINEL	-0.674 ± 0.086
KEYCRTLFAYEGTNEDELTFKEGEIIHLISKETGEAGWWRGELNGKEGVSPDNFAVQINEL	-0.818 ± 0.11
KEYCRTLFAYEGTNEDELTFKEGEIIHLISKETGEAGWWRGELNGKEGVNPDNFAVQINEL	-0.809 ± 0.36
KEYCRTLFAYEGTNEDELTFKEGEIIHLISKETGEAGWWRGELNGKEGVWPDNFAVQINEL	-0.792 ± 0.11
KEYCRTLFAYEGTNEDELTFKEGEIIHLISKETGEAGWWRGELNGKEGVDPDNFAVQINEL	-0.626 ± 0.13
KEYCRTLFAYEGTNEDELTFKEGEIIHLISKETGEAGWWRGELNGKEGVTPDNFAVQINEL	-0.705 ± 0.12
KEYCRTLFAYEGTNEDELTFKEGEIIHLISKETGEAGWWRGELNGKEGVAPDNFAVQINEL	-0.539 ± 0.082
KEYCRTLFAYEGTNEDELTFKEGEIIHLISKETGEAGWWRGELNGKEGVRPDNFAVQINEL	-0.614 ± 0.066
KEYCRTLFAYEGTNEDELTFKEGEIIHLISKETGEAGWWRGELNGKEGVCPDNFAVQINEL	-0.516 ± 0.16
KEYCRTLFAYEGTNEDELTFKEGEIIHLISKETGEAGWWRGELNGKEGVQPDNFAVQINEL	-0.732 ± 0.12
KEYCRTLFAYEGTNEDELTFKEGEIIHLISKETGEAGWWRGELNGKEGVPPDNFAVQINEL	-0.973 ± 0.24
KEYCRTLFAYEGTNEDELTFKEGEIIHLISKETGEAGWWRGELNGKEEVFPDNFAVQINEL	-0.688 ± 0.08
KEYCRTLFAYEGTNEDELTFKEGEIIHLISKETGEAGWWRGELNGKEDVFPDNFAVQINEL	-0.695 ± 0.15
KEYCRTLFAYEGTNEDELTFKEGEIIHLISKETGEAGWWRGELNGKEFVFPDNFAVQINEL	-1.05 ± 0.27

Variant	abundance fitness
KEYCRTLFAYEGTNEDELTFKEGEIIHLISKETGEAGWWRGELNGKECVFPDNFAVQINEL	-1.01 ± 0.15
KEYCRTLFAYEGTNEDELTFKEGEIIHLISKETGEAGWWRGELNGKENVFPDNFAVQINEL	-0.998 ± 0.3
KEYCRTLFAYEGTNEDELTFKEGEIIHLISKETGEAGWWRGELNGKEVVFPDNFAVQINEL	-0.864 ± 0.087
KEYCRTLFAYEGTNEDELTFKEGEIIHLISKETGEAGWWRGELNGKERVFPDNFAVQINEL	-0.856 ± 0.059
KEYCRTLFAYEGTNEDELTFKEGEIIHLISKETGEAGWWRGELNGKETVFPDNFAVQINEL	-1.07 ± 0.15
KEYCRTLFAYEGTNEDELTFKEGEIIHLISKETGEAGWWRGELNGKEWVFPDNFAVQINEL	-0.949 ± 0.074
KEYCRTLFAYEGTNEDELTFKEGEIIHLISKETGEAGWWRGELNGKEQVFPDNFAVQINEL	-0.93 ± 0.16
KEYCRTLFAYEGTNEDELTFKEGEIIHLISKETGEAGWWRGELNGKEMVFPDNFAVQINEL	-0.947 ± 0.15
KEYCRTLFAYEGTNEDELTFKEGEIIHLISKETGEAGWWRGELNGKESVFPDNFAVQINEL	-0.843 ± 0.071
KEYCRTLFAYEGTNEDELTFKEGEIIHLISKETGEAGWWRGELNGKELVFPDNFAVQINEL	-0.753 ± 0.061
KEYCRTLFAYEGTNEDELTFKEGEIIHLISKETGEAGWWRGELNGKEAVFPDNFAVQINEL	-0.65 ± 0.093
KEYCRTLFAYEGTNEDELTFKEGEIIHLISKETGEAGWWRGELNGKEHVFPDNFAVQINEL	-0.749 ± 0.13
KEYCRTLFAYEGTNEDELTFKEGEIIHLISKETGEAGWWRGELNGKEPVFPDNFAVQINEL	-0.932 ± 0.12
KEYCRTLFAYEGTNEDELTFKEGEIIHLISKETGEAGWWRGELNGKEIVFPDNFAVQINEL	-0.725 ± 0.2
KEYCRTLFAYEGTNEDELTFKEGEIIHLISKETGEAGWWRGELNGKEKVFPDNFAVQINEL	-0.746 ± 0.17
KEYCRTLFAYEGTNEDELTFKEGEIIHLISKETGEAGWWRGELNGKEYVFPDNFAVQINEL	-1.18 ± 0.34
KEYCRTLFAYEGTNEDELTFKEGEIIHLISKETGEAGWWRGELNGKEGVFNDNFAVQINEL	-0.582 ± 0.16
KEYCRTLFAYEGTNEDELTFKEGEIIHLISKETGEAGWWRGELNGKEGVFGDNFAVQINEL	-0.893 ± 0.096
KEYCRTLFAYEGTNEDELTFKEGEIIHLISKETGEAGWWRGELNGKEGVFADNFAVQINEL	-0.447 ± 0.087
KEYCRTLFAYEGTNEDELTFKEGEIIHLISKETGEAGWWRGELNGKEGVFQDNFAVQINEL	-0.137 ± 0.1
KEYCRTLFAYEGTNEDELTFKEGEIIHLISKETGEAGWWRGELNGKEGVFDDNFAVQINEL	-0.487 ± 0.15
KEYCRTLFAYEGTNEDELTFKEGEIIHLISKETGEAGWWRGELNGKEGVFMDNFAVQINEL	0.004 ± 0.11

Variant	abundance fitness
KEYCRTLFAYEGTNEDELTFKEGEIIHLISKETGEAGWWRGELNGKEGVFWDNFAVQINEL	-0.533 ± 0.071
KEYCRTLFAYEGTNEDELTFKEGEIIHLISKETGEAGWWRGELNGKEGVFRDNFAVQINEL	-0.032 ± 0.05
KEYCRTLFAYEGTNEDELTFKEGEIIHLISKETGEAGWWRGELNGKEGVFEDNFAVQINEL	-0.573 ± 0.19
KEYCRTLFAYEGTNEDELTFKEGEIIHLISKETGEAGWWRGELNGKEGVFLDNFAVQINEL	-0.377 ± 0.068
KEYCRTLFAYEGTNEDELTFKEGEIIHLISKETGEAGWWRGELNGKEGVFHDNFAVQINEL	-0.866 ± 0.3
KEYCRTLFAYEGTNEDELTFKEGEIIHLISKETGEAGWWRGELNGKEGVFSDNFAVQINEL	-0.56 ± 0.076
KEYCRTLFAYEGTNEDELTFKEGEIIHLISKETGEAGWWRGELNGKEGVFKDNFAVQINEL	0.152 ± 0.13
KEYCRTLFAYEGTNEDELTFKEGEIIHLISKETGEAGWWRGELNGKEGVFFDNFAVQINEL	-0.677 ± 0.38
KEYCRTLFAYEGTNEDELTFKEGEIIHLISKETGEAGWWRGELNGKEGVFVDNFAVQINEL	-0.974 ± 0.21
KEYCRTLFAYEGTNEDELTFKEGEIIHLISKETGEAGWWRGELNGKEGVFIDNFAVQINEL	-0.49 ± 0.14
KEYCRTLFAYEGTNEDELTFKEGEIIHLISKETGEAGWWRGELNGKEGVFCDNFAVQINEL	-0.923 ± 0.25
KEYCRTLFAYEGTNEDELTFKEGEIIHLISKETGEAGWWRGELNGKEGVFPWNFAVQINEL	-0.186 ± 0.12
KEYCRTLFAYEGTNEDELTFKEGEIIHLISKETGEAGWWRGELNGKEGVFPCNFAVQINEL	0.009 ± 0.12
KEYCRTLFAYEGTNEDELTFKEGEIIHLISKETGEAGWWRGELNGKEGVFPANFAVQINEL	0.053 ± 0.1
KEYCRTLFAYEGTNEDELTFKEGEIIHLISKETGEAGWWRGELNGKEGVFPYNFAVQINEL	-0.085 ± 0.17
KEYCRTLFAYEGTNEDELTFKEGEIIHLISKETGEAGWWRGELNGKEGVFPMNFAVQINEL	0.077 ± 0.12
KEYCRTLFAYEGTNEDELTFKEGEIIHLISKETGEAGWWRGELNGKEGVFPFNFAVQINEL	-0.142 ± 0.13
KEYCRTLFAYEGTNEDELTFKEGEIIHLISKETGEAGWWRGELNGKEGVFPNNFAVQINEL	0.008 ± 0.28
KEYCRTLFAYEGTNEDELTFKEGEIIHLISKETGEAGWWRGELNGKEGVFPLNFAVQINEL	-0.055 ± 0.059
KEYCRTLFAYEGTNEDELTFKEGEIIHLISKETGEAGWWRGELNGKEGVFPQNFAVQINEL	-0.02 ± 0.17
KEYCRTLFAYEGTNEDELTFKEGEIIHLISKETGEAGWWRGELNGKEGVFPSNFAVQINEL	0.039 ± 0.065
KEYCRTLFAYEGTNEDELTFKEGEIIHLISKETGEAGWWRGELNGKEGVFPVNFAVQINEL	-0.16 ± 0.067

Variant	abundance fitness
KEYCRTLFAYEGTNEDELTFKEGEIIHLISKETGEAGWWRGELNGKEGVFPENFAVQINEL	0.043 ± 0.083
KEYCRTLFAYEGTNEDELTFKEGEIIHLISKETGEAGWWRGELNGKEGVFPKNFAVQINEL	-0.02 ± 0.12
KEYCRTLFAYEGTNEDELTFKEGEIIHLISKETGEAGWWRGELNGKEGVFPINFAVQINEL	0.077 ± 0.46
KEYCRTLFAYEGTNEDELTFKEGEIIHLISKETGEAGWWRGELNGKEGVFPRNFAVQINEL	-0.043 ± 0.076
KEYCRTLFAYEGTNEDELTFKEGEIIHLISKETGEAGWWRGELNGKEGVFPPNFAVQINEL	-0.081 ± 0.12
KEYCRTLFAYEGTNEDELTFKEGEIIHLISKETGEAGWWRGELNGKEGRFPDNFAVQINEL	0.029 ± 0.036
KEYCRTLFAYEGTNEDELTFKEGEIIHLISKETGEAGWWRGELNGKEGWFPDNFAVQINEL	-0.111 ± 0.07
KEYCRTLFAYEGTNEDELTFKEGEIIHLISKETGEAGWWRGELNGKEGSFPDNFAVQINEL	-0.297 ± 0.06
KEYCRTLFAYEGTNEDELTFKEGEIIHLISKETGEAGWWRGELNGKEGGFPDNFAVQINEL	-0.628 ± 0.053
KEYCRTLFAYEGTNEDELTFKEGEIIHLISKETGEAGWWRGELNGKEGLFPDNFAVQINEL	-0.01 ± 0.038
KEYCRTLFAYEGTNEDELTFKEGEIIHLISKETGEAGWWRGELNGKEGQFPDNFAVQINEL	-0.302 ± 0.077
KEYCRTLFAYEGTNEDELTFKEGEIIHLISKETGEAGWWRGELNGKEGYFPDNFAVQINEL	-0.022 ± 0.1
KEYCRTLFAYEGTNEDELTFKEGEIIHLISKETGEAGWWRGELNGKEGCFPDNFAVQINEL	-0.11 ± 0.058
KEYCRTLFAYEGTNEDELTFKEGEIIHLISKETGEAGWWRGELNGKEGMFPDNFAVQINEL	-0.082 ± 0.067
KEYCRTLFAYEGTNEDELTFKEGEIIHLISKETGEAGWWRGELNGKEGAFPDNFAVQINEL	-0.319 ± 0.065
KEYCRTLFAYEGTNEDELTFKEGEIIHLISKETGEAGWWRGELNGKEGHFPDNFAVQINEL	-0.482 ± 0.14
KEYCRTLFAYEGTNEDELTFKEGEIIHLISKETGEAGWWRGELNGKEGPFPDNFAVQINEL	-0.713 ± 0.11
KEYCRTLFAYEGTNEDELTFKEGEIIHLISKETGEAGWWRGELNGKEGKFPDNFAVQINEL	0.003 ± 0.089
KEYCRTLFAYEGTNEDELTFKEGEIIHLISKETGEAGWWRGELNGKEGEFPDNFAVQINEL	-0.674 ± 0.17
KEYCRTLFAYEGTNEDELTFKEGEIIHLISKETGEAGWWRGELNGKEGTFPDNFAVQINEL	-0.129 ± 0.083
KEYCRTLFAYEGTNEDELTFKEGEIIHLISKETGEAGWWRGELNGKEGNFPDNFAVQINEL	-0.099 ± 0.11
